Measured values published in US20030087317.

Key:
[1] = tested on: histone
[2] = tested on: myelin basic protein

Chain of human NIM1 kinase-GST (recombinant Nim1-GST, expressed in Sf21 insect cells from pVL1392/GST-NIM1) (chain, as listed by the source): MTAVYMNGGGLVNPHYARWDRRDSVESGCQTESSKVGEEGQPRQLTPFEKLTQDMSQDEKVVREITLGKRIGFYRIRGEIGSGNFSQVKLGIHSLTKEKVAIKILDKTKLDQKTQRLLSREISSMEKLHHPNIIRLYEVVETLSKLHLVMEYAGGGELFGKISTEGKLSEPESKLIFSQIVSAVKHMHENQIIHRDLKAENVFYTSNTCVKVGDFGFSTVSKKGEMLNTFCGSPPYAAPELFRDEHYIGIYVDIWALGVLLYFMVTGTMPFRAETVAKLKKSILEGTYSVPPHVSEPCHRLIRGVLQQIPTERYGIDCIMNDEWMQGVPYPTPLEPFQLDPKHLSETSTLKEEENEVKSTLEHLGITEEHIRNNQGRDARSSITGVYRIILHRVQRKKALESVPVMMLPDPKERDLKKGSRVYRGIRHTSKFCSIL

human NIM1 kinase-GST (recombinant Nim1-GST, expressed in Sf21 insect cells from pVL1392/GST-NIM1)
phosphorylation of substrate in in vitro kinase assay ([gamma-32P]-ATP, SDS-PAGE, autoradiography) [1]: phosphorylated its substrates MBP, lane 2, and HIST. 1, lane 4 | phosphorylation of substrate in in vitro kinase assay ([gamma-32P]-ATP, SDS-PAGE, autoradiography) [2]: phosphorylated its substrates MBP, lane 2, and HIST. 1, lane 4
